Biological target: CMG assembled in vitro on roadblocked linear DNA from loaded MCM double hexamers and purified firing factors (yeast (strains based on W303)) (UniProt Q08032)
Test: negative-stain EM with 2D classification; origin activation reconstituted with purified yeast proteins on bead-tethered linear DNA capped by covalent protein roadblocks; eluted by DNA digestion at a single site; particles counted in 2D class averages

percent of isolated (not train-incorporated) CMG particles bound by Pol epsilon: 2%
Substance: Pol epsilon used in the reconstituted origin activation (MCM train) reactions, P21951 1-2222; P24482 1-689; P27344 1-201; Q04603 1-196
